{"source": "patent US20260008856A1", "about": "(BLUEFIN BIOMEDICINE, published 2026)", "binders": {"B1": {"name": "32F9_21A5 (antibody, V domains shown)", "VH": "QLQLVESGGGVVQPGRSLRLSCAASGFTFSSHGMHWVRQAPGKGLEWVAVIWYDGSSEYYADSVKGRFTISRDNSKNTLYLQMNSLRAEDTAVYYCARENVYGSGWFFDYWGQGSLVTVSS", "VL": "EIVMTQSPATLSVSPGERASLSCRASQSVGSNLAWYQQKPGQAPRLLIFGASTRATGIPARFSGSRSGTEFTLTISSLQSEDFALYYCQQYNNWPPWTFGQGTKLEIK", "notes": "Recombinant human antibody"}, "B2": {"name": "33E9_21A6 (antibody, V domains shown)", "VH": "B1 VH with P14F, S115T", "VL": "B1 VL", "notes": "Recombinant human antibody"}, "B3": {"name": "31F9_21A1 (antibody, V domains shown)", "VH": "B1 VH with L2V, V11M, A23T, Y53F, S57N, A61V, S115T", "VL": "B1 VL with L105V", "notes": "Recombinant human antibody"}, "B4": {"name": "35D11_22A1 (antibody, V domains shown)", "VH": "B1 VH with H32Y, Y80F, E89D, S115T", "VL": "B1 VL with N92D", "notes": "Recombinant human antibody"}, "B5": {"name": "32D4_21D6 (antibody, V domains shown)", "VH": "B1 VH with H32Y, S115T", "VL": "B1 VL with L105V", "notes": "Recombinant human antibody"}, "B6": {"name": "5D12_C108Y (antibody, V domains shown)", "VH": "QVQLQESGPGLVKPLGTLSLTCAVSGGSISNSNWWSWVRQPPGKGLEWIGEIYHSGSTNYNPSLKSRVTIALDWSKNQFSLQLRSVTAADTAVYYCARYGSGPFGGDYWGQGTLVTVSS", "VL": "DIQLTQSPSFLSASVGDRVTISCRASQGISSYLAWYQQKPGKAPKLLIYAASTLQGGVPSRFSGSGSGTTFTLTISSLQPEDFATYYCQQLNTYPFTFGPGTKLEIK", "notes": "Cys108Tyr (VH) variant of 5D12_18A4"}, "B7": {"name": "38G11_28A2 (antibody, V domains shown)", "VH": "EVQLVESGGGLVQPGGSLRLSCAASGFTFSSYWMSWVRQAPGKGLEWVANIKQDGSEKHYVDSVKGRFTISRDNAKNSLYLQMNSLRAEDTAVYYCAREGYFGSGYFDYWGQGTLVTVSS", "VL": "B6 VL with S22T, G56S, T70E, L91Y, N92S, T93F, P95S, F96H, P100Q", "notes": "Recombinant human antibody"}, "B8": {"name": "34D1_21B3 (antibody, V domains shown)", "VH": "QGQLVESGGGVVQPGRSLRLSCAASGFTFSSYTLHWVRQAPGKGLEWVAVIWYDGSNKYYVDSVKGRFTISRDNSKNTLYLQMNSLRAEDTAVYYCAREYGSGSYYNVYYGMDVWGQGTTVTVSS", "VL": "DIVMTQSPLSLPVTPGEPASISCRSSQSLLHSNGYKYLDWYLQKAGQSPHLLIYLGSNRASGVPDRFSGSGSGTDFTLKISRVEAEDVGFYYCMQTLQIPLTFGGGTKLEIK", "notes": "Recombinant human antibody"}, "B9": {"name": "39A9_28A4 (antibody, V domains shown)", "VH": "QVQLVESGGGVVQPGRSLRLSCAASGFTLSGYGMHWVRQAPGKGLEWVAVIWYDGSNKYYADSVKGRFTISRDNSKNMLFLQMNSLRAEDTAVYYCVRENGFGSGWFFDYWGQGNLVTVSS", "VL": "not shown", "notes": "Recombinant human antibody"}, "B10": {"name": "42D10_28A5 (antibody, V domains shown)", "VH": "QVQPKESGPGVVKPSETLSLTCAVSGFPISRGYYWGWIRQPPGKGLEWIGNIFHSGTTYYNPSLKSRVTISVDTSKNQISLKLTSVTAADTAVYYCVGFGDLPHYQYYVMDIWGQGTTVTVSS", "VL": "EIVLTQSPATLSLSPGERATLSCRASQSVSSYLAWYQQKPGQAPRLLIYDASNRATGIPARFSGSGSGTDFTLTISSLEPEDFAVYYCQQRSNWPPYTFGQGTKLEIK", "notes": "Recombinant human antibody"}, "B11": {"name": "17E9_15B1 (antibody, V domains shown)", "VH": "not shown", "VL": "DIQMTQSPSSLSASVGDRVTLTCRASQNIRSYLNWYQQKPGKAPKLLIFAASSLPSGVPSRFSGSGSVTDFTLTVSSLQPEDFATYSCQQSYSTPYTFGQGTKLEIK", "notes": "Recombinant human antibody"}, "B12": {"name": "16H2_17D1 (antibody, V domains shown)", "VH": "EVQLLESGADLVQPGGSLRLSCAASGFTFSSYAMSWVRQAPGKGLEWVSTIRISGGTTYYADSVKGRFTISRDNSKNTLYLQMNSLRAEDTAVYYCVRDYYNGMDVWGQGTTVTVSS", "VL": "EIVLTQSPATLSLSPGERATLSCRASQRVSSYLAWYQQKPGQAPRLLIYDASNRATGIPARFSGSGSGTDFTLTISSLEPEDFAVYYCQQRSYWPPAFGQGTKLEIK", "notes": "Recombinant human antibody"}, "B13": {"name": "10C8-15A4 (antibody, V domains shown)", "VH": "B12 VH with V2E, V12A, G56D, Y80F, Q109H", "VL": "B12 VL", "notes": "Recombinant human antibody"}, "B14": {"name": "26C5_15B4 (antibody, V domains shown)", "VH": "B12 VH with V2A, A9G, D10G, R52S, I53G, T57S, Y59H, N102Y", "VL": "B12 VL with R28S, A97T", "notes": "Recombinant human antibody"}, "B15": {"name": "33H2_21B1 (antibody, V domains shown)", "VH": "B7 VH with L4V, A24T, S30R, S35T, K58R, N77T, N84S, V93M, F102Y", "VL": "DIQMTQSPSTLSASVGDRVIITCRASQSISRGLAWYQQKPGKAPKLLIYKASNLESGVPSRFSGSGSGTEFTLTISSLQPDDFAAYYCQQYSYYSHTFGQGTKVEIK", "notes": "Recombinant human antibody"}, "B16": {"name": "36A12_21C1 (antibody, V domains shown)", "VH": "B7 VH with F29L, S31F, S35T, S56N, H59N, R72K, N77K, L79V, Y80F", "VL": "B15 VL with I20T, S30N, R31S, G32W, N53T, A85P, Q90H, S92N, Y93S, S95P", "notes": "Recombinant human antibody"}, "B17": {"name": "40C3_22B6 (antibody, V domains shown)", "VH": "B7 VH with F29L, S31F, S35T, S56N, H59N, Y60F, N77K, L79V, Y80F", "VL": "not shown", "notes": "Recombinant human antibody"}, "B18": {"name": "34C11_21B2 (antibody, V domains shown)", "VH": "B7 VH with L4V, S30R, K58R, N77T, N84S", "VL": "B15 VL with V104L", "notes": "Recombinant human antibody"}, "B19": {"name": "10C8_C43A (antibody, V domains shown)", "VH": "QVQLVESGGGVVQPGRSLRISCAASGFTFRSYGMHWVRQAPGKGLEWVAIIWHDESYKYYVDSVKGRFTISRDNSKNTLYLQMNSLRAEDTAVYYCARGDYYGSGSYYDAFDIWGQGTMVTVSS", "VL": "DIQMTQSPSSLSASVGDRVIITCRASQGISNYLAWFQQKPGKAPNLLIYAASTLRSGVPSRFSGSGSGTDFTLTISSLQPEDVATYYCQKYNSAPYTFGQGTKVEIK", "notes": "Cys43Ala variant of 10C8_15A1"}, "B20": {"name": "32C12-N26S (antibody, V domains shown)", "VH": "QVQLVESGGGVVQPGRSLRLSCAASGFTFRNYGIHWVRQAPGKGLEWVAVIWYDGSNKFYADSVKGRFTISRDNSKNTLYLQMNSLRVEDTAVYYCAREEGIAVAPFDYWGQGTLVTVSS", "VL": "DIQMTQSPSSLSASVGDRVAITCRASQSIASYLNWYQQKPGKAPKLLIYGASSLQNGVPSRFSGSGSRTDFTLTISSLQPEDFATYYCQQSYSTEITFGQGTRLEIK", "notes": "Asn26Ser (VL CDR1) variant of 32C12_21A4"}, "B21": {"name": "41G4_15B6 (antibody, V domains shown)", "VH": "B20 VH with I34M", "VL": "B20 VL with S26N", "notes": "Recombinant human antibody"}}, "note": "Substitutions are numbered along the chain they refer to."}
{"target": "T1, huIL1RAP ECD recombinant protein (human, UniProt Q9NPH3 21-367)", "T1 construct": "also called recombinant human IL1RAP-ECD; recombinant human IL1RAP; not shown: C-terminal histidine tag for purification", "assay": "Octet BLI, antibody on Protein A biosensor, recombinant huIL1RAP ECD", "description": "Affinity: The affinity of antibodies to various recombinant IL1RAP protein was determined on an Octet Red™ instrument. After loading reagents into a 96-well plate, the Octet Red™ with Protein A-conjugated biosensors was programmed as follows: 30 seconds for baseline #1; 120 seconds to immobilize the antibody; 30 seconds for baseline #2; 300 seconds for association of antibody to recombinant IL1RAP; and 300-600 seconds for dissociation of recombinant IL1RAP from the antibody.", "units": {"Kd": "nM"}}
{"binder": "B1", "Kd": 2}
{"binder": "B2", "Kd": 2}
{"binder": "B3", "Kd": 2}
{"binder": "B4", "Kd": 3}
{"binder": "B5", "Kd": 3}
{"binder": "B6", "Kd": 13}
{"binder": "B7", "Kd": 29}
{"binder": "B8", "Kd": 3}
{"binder": "B9", "Kd": 3}
{"binder": "B10", "Kd": 7}
{"binder": "B11", "Kd": 21}
{"binder": "B12", "Kd": 50}
{"binder": "B13", "Kd": 1}
{"binder": "B14", "Kd": 127}
{"binder": "B15", "Kd": 7}
{"binder": "B16", "Kd": 24}
{"binder": "B17", "Kd": 23}
{"binder": "B18", "Kd": 0.2}
{"binder": "B19", "Kd": 13}
{"binder": "B20", "Kd": 19}
{"binder": "B21", "Kd": 5}
